For test [1], the target named is T1, human Kallikrein-related peptidase 7 (hKLK7) (human), P49862. Nature of the test: enzyme inhibition; 2,6-bis(bromomethyl)pyridine linker. The settings on record: modification not given.
Target sequence in this assay (P49862 30-253): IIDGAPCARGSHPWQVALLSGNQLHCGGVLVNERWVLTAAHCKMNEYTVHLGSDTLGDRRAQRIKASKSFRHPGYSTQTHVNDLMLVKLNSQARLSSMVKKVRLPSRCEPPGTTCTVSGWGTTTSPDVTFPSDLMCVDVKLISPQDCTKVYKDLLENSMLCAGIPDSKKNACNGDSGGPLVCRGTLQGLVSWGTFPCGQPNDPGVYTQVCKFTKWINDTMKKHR
For test [2], the target named is T1, human Kallikrein-related peptidase 7 …. Kind of test: enzyme inhibition; pyridine linker. The conditions noted are these: modification not given.
Target sequence in this assay (P49862 30-253): as above
Test [3] shares this target. Kind of test: enzyme inhibition; ketone linker. The conditions noted are these: modification not given.
Target sequence in this assay (P49862 30-253): as above
Test [4] addresses human serum albumin (HSA) (human), P02768. Kind of test: fluorescence polarization.
The target in test [5] is T1, human Kallikrein-related peptidase 7 …. Kind of test: substrate-based activity assay.
Target sequence in this assay (P49862 30-253 limits assumed): as the sequence (P49862 30-253) above
Test [6] has the same target. Nature of the test: enzyme inhibition; 1,3-dibromoacetone linker. The settings on record: modification not given.
Target sequence in this assay (P49862 30-253): as above
The target in test [7] is human Kallikrein-related peptidase 5 (hKLK5) (human), Q9Y337. Nature of the test: enzyme inhibition; 2,6-bis(bromomethyl)pyridine linker. The conditions noted are these: modification not given.

Positions of bridges follow the written chain, without caps; N, C: chain ends. Non-standard residues stand in square brackets, D forms with d. Chains are numbered I, II in the order given. No end group written: not given here. *: point of attachment. Palmitoyl = CCCCCCCCCCCCCCCC(=O)*; hArg = N=C(N)NCCCC[C@H](N)C(=O)O; Nle = CCCC[C@H](N)C(=O)O

The Ki is a measure of affinity in units of concentration, obtained from inhibition or displacement. Low values mean tighter binding, high ones weaker binding. The Kd is the constant that tells how readily two partners part at equilibrium. Lower therefore signals tighter binding.

Chain of human Kallikrein-related peptidase 5 (hKLK5) (human), Q9Y337 (Q9Y337 67-293): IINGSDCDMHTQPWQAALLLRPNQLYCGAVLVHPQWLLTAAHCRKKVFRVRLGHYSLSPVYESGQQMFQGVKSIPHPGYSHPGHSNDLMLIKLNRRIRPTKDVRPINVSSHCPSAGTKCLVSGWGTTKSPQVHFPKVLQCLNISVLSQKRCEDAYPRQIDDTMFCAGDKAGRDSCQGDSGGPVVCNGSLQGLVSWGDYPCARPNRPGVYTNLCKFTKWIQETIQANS

In test [1], QCLYIACPSAAKCDNGCQ [009] showed an inhibition constant Ki of 32 nM.
With QCLYLSCS [081], in test [2], the Ki amounted to 12 nM.
Turning to PCLYMARCS [111], the Ki in test [3] amounted to 10 nM.

B1: KLK7 inhibitor 278-tag (final KLK7 inhibitor) (peptide)
peptide 1: PCLY[Nle]A[hArg]CGKG
peptide 2: EYEK(Palmitoyl)EYE
modifications: bridge I:2-I:8; not fully specified (some residues, N-terminus, bridges); also: chain 2 (albumin tag) attached via PEG2 to Lys10 side chain of chain 1 (branched)
B1 showed a Kd in test [4] of 164 nM. The same molecule yielded an inhibition constant (Ki) in test [5] of 7.4 nM.
Take RCLYLSCS [082]: the inhibition constant (Ki) in test [2] was determined as 8.8 nM.
Still for that read-out and setting: the same measure for PCLYLSCP [089]: 50 nM.
In test [3], PCLYLSRCS [095] came in with a Ki of 90 nM.
As to PCLYLTCS [088], the Ki in test [2] amounted to 52 nM.
Consider HCRKGLDRCPQCLYRTCS [008], for which the Ki in test [1] stood at 66 nM. This lies in the double-digit nanomolar range.
Still for that read-out and setting: then RCDSSQCMQGQCLYRSCP [007], with 94 nM.
PCLYRSCS [086] had an inhibitory constant (Ki) in test [2] of 53 nM.
The same measure, in the same setting: then PCLYLACS [087], with 17.5 nM.
FCLWPWCQPPEACPSQCE [012]: the inhibition constant Ki in test [6] was above 1000 nM.
PCLYLAQCS [112] showed an inhibition constant Ki in test [3] of 36 nM. That is a double-digit nanomolar value.
On to PCLYLSCS [080], for which the inhibition constant (Ki) in test [2] was 29.4 nM. This counts as double-digit nanomolar.
Turning to ACTREYNPQCANPQCLCH [003], the inhibition constant (Ki) in test [7] amounted to 6 nM.
PCLYLAC [109]: the Ki in test [2] amounted to 19 nM.

The record behind these values is patent US20220267379A1, “NOVEL INHIBITORS OF […] AND USES THEREOF” (Ecole Polytechnique Federale de Lausanne (EPFL), priority 2019, published 2022).
